From patent publication US20150344570A1 (published 2015)

B1: GpH7-A5/GpH7-B3 variant G237_05P/GpL16-k0 (antibody, human IgG1, kappa)
heavy 1: not shown
heavy 2: not shown
light: DIVMTQSPLSLPVTPGEPASISCQASESLVHSNRNTYLHWYLQKPGQSPQLLIYKVSNRFSGVPDRFSGSGSGTDFTLKISRVEAEDVGVYYCSQNTHVPPTFGQGTKVEIERTVAAPSVFIFPPSDEQLKSGTASVVCLLNNFYPREAKVQWKVDNALQSGNSQESVTEQDSKDSTYSLSSTLTLSKADYEKHKVYACEVTHQGLSSPVTKSFNRGEC
notes: Heterodimerized antibody, alteration in one H chain only; also called He Ab G237P
B2: GpH7-A5/GpH7-B3 variant P238_08L/GpL16-k0 (antibody, human IgG1, kappa)
heavy 1: not shown
heavy 2: not shown
light: DIVMTQSPLSLPVTPGEPASISCQASESLVHSNRNTYLHWYLQKPGQSPQLLIYKVSNRFSGVPDRFSGSGSGTDFTLKISRVEAEDVGVYYCSQNTHVPPTFGQGTKVEIERTVAAPSVFIFPPSDEQLKSGTASVVCLLNNFYPREAKVQWKVDNALQSGNSQESVTEQDSKDSTYSLSSTLTLSKADYEKHKVYACEVTHQGLSSPVTKSFNRGEC
notes: Heterodimerized antibody, alteration in one H chain only; also called He Ab P238L
B3: GpH7-A5/GpH7-B3 variant S337_02A/GpL16-k0 (antibody, human IgG1, kappa)
heavy 1: not shown
heavy 2: not shown
light: DIVMTQSPLSLPVTPGEPASISCQASESLVHSNRNTYLHWYLQKPGQSPQLLIYKVSNRFSGVPDRFSGSGSGTDFTLKISRVEAEDVGVYYCSQNTHVPPTFGQGTKVEIERTVAAPSVFIFPPSDEQLKSGTASVVCLLNNFYPREAKVQWKVDNALQSGNSQESVTEQDSKDSTYSLSSTLTLSKADYEKHKVYACEVTHQGLSSPVTKSFNRGEC
notes: heterodimerized IgG1, mutation in one H chain; also called He Ab
B4: GpH7-A5/GpH7-B3 variant S324_20W/GpL16-k0 (antibody, human IgG1, kappa)
heavy 1: not shown
heavy 2: not shown
light: DIVMTQSPLSLPVTPGEPASISCQASESLVHSNRNTYLHWYLQKPGQSPQLLIYKVSNRFSGVPDRFSGSGSGTDFTLKISRVEAEDVGVYYCSQNTHVPPTFGQGTKVEIERTVAAPSVFIFPPSDEQLKSGTASVVCLLNNFYPREAKVQWKVDNALQSGNSQESVTEQDSKDSTYSLSSTLTLSKADYEKHKVYACEVTHQGLSSPVTKSFNRGEC
notes: as for B3
B5: GpH7-A5/GpH7-B3 variant K326_05P/GpL16-k0 (antibody, human IgG1, kappa)
heavy 1: not shown
heavy 2: not shown
light: DIVMTQSPLSLPVTPGEPASISCQASESLVHSNRNTYLHWYLQKPGQSPQLLIYKVSNRFSGVPDRFSGSGSGTDFTLKISRVEAEDVGVYYCSQNTHVPPTFGQGTKVEIERTVAAPSVFIFPPSDEQLKSGTASVVCLLNNFYPREAKVQWKVDNALQSGNSQESVTEQDSKDSTYSLSSTLTLSKADYEKHKVYACEVTHQGLSSPVTKSFNRGEC
notes: Heterodimerized antibody, alteration in one H chain only; also called He Ab K326P
B6: GpH7-A5/GpH7-B3 variant S337_01G/GpL16-k0 (antibody, human IgG1, kappa)
heavy 1: not shown
heavy 2: not shown
light: DIVMTQSPLSLPVTPGEPASISCQASESLVHSNRNTYLHWYLQKPGQSPQLLIYKVSNRFSGVPDRFSGSGSGTDFTLKISRVEAEDVGVYYCSQNTHVPPTFGQGTKVEIERTVAAPSVFIFPPSDEQLKSGTASVVCLLNNFYPREAKVQWKVDNALQSGNSQESVTEQDSKDSTYSLSSTLTLSKADYEKHKVYACEVTHQGLSSPVTKSFNRGEC
notes: as for B3
B7: GpH7-A5/GpH7-B3 variant H268_01G/GpL16-k0 (antibody, human IgG1, kappa)
heavy 1: not shown
heavy 2: not shown
light: DIVMTQSPLSLPVTPGEPASISCQASESLVHSNRNTYLHWYLQKPGQSPQLLIYKVSNRFSGVPDRFSGSGSGTDFTLKISRVEAEDVGVYYCSQNTHVPPTFGQGTKVEIERTVAAPSVFIFPPSDEQLKSGTASVVCLLNNFYPREAKVQWKVDNALQSGNSQESVTEQDSKDSTYSLSSTLTLSKADYEKHKVYACEVTHQGLSSPVTKSFNRGEC
notes: Heterodimerized antibody, alteration in one H chain only; also called He Ab H268G
B8: GpH7-A5/GpH7-B3 variant H268_03V/GpL16-k0 (antibody, human IgG1, kappa)
heavy 1: not shown
heavy 2: not shown
light: DIVMTQSPLSLPVTPGEPASISCQASESLVHSNRNTYLHWYLQKPGQSPQLLIYKVSNRFSGVPDRFSGSGSGTDFTLKISRVEAEDVGVYYCSQNTHVPPTFGQGTKVEIERTVAAPSVFIFPPSDEQLKSGTASVVCLLNNFYPREAKVQWKVDNALQSGNSQESVTEQDSKDSTYSLSSTLTLSKADYEKHKVYACEVTHQGLSSPVTKSFNRGEC
notes: Heterodimerized antibody, alteration in one H chain only; also called He Ab H268V
B9: GpH7-A5/GpH7-B3 variant H268_05P/GpL16-k0 (antibody, human IgG1, kappa)
heavy 1: not shown
heavy 2: not shown
light: DIVMTQSPLSLPVTPGEPASISCQASESLVHSNRNTYLHWYLQKPGQSPQLLIYKVSNRFSGVPDRFSGSGSGTDFTLKISRVEAEDVGVYYCSQNTHVPPTFGQGTKVEIERTVAAPSVFIFPPSDEQLKSGTASVVCLLNNFYPREAKVQWKVDNALQSGNSQESVTEQDSKDSTYSLSSTLTLSKADYEKHKVYACEVTHQGLSSPVTKSFNRGEC
notes: Heterodimerized antibody, alteration in one H chain only; also called He Ab H268P
B10: GpH7-A5/GpH7-B3 variant P238_09D/GpL16-k0 (antibody, human IgG1, kappa)
heavy 1: not shown
heavy 2: not shown
light: DIVMTQSPLSLPVTPGEPASISCQASESLVHSNRNTYLHWYLQKPGQSPQLLIYKVSNRFSGVPDRFSGSGSGTDFTLKISRVEAEDVGVYYCSQNTHVPPTFGQGTKVEIERTVAAPSVFIFPPSDEQLKSGTASVVCLLNNFYPREAKVQWKVDNALQSGNSQESVTEQDSKDSTYSLSSTLTLSKADYEKHKVYACEVTHQGLSSPVTKSFNRGEC
notes: Heterodimerized antibody, alteration in one H chain only; also called He Ab P238D
B11: GpH7-A5/GpH7-B3 variant S324_19Q/GpL16-k0 (antibody, human IgG1, kappa)
heavy 1: not shown
heavy 2: not shown
light: DIVMTQSPLSLPVTPGEPASISCQASESLVHSNRNTYLHWYLQKPGQSPQLLIYKVSNRFSGVPDRFSGSGSGTDFTLKISRVEAEDVGVYYCSQNTHVPPTFGQGTKVEIERTVAAPSVFIFPPSDEQLKSGTASVVCLLNNFYPREAKVQWKVDNALQSGNSQESVTEQDSKDSTYSLSSTLTLSKADYEKHKVYACEVTHQGLSSPVTKSFNRGEC
notes: as for B3
B12: GpH7-A5/GpH7-B3 variant S337_03V/GpL16-k0 (antibody, human IgG1, kappa)
heavy 1: not shown
heavy 2: not shown
light: DIVMTQSPLSLPVTPGEPASISCQASESLVHSNRNTYLHWYLQKPGQSPQLLIYKVSNRFSGVPDRFSGSGSGTDFTLKISRVEAEDVGVYYCSQNTHVPPTFGQGTKVEIERTVAAPSVFIFPPSDEQLKSGTASVVCLLNNFYPREAKVQWKVDNALQSGNSQESVTEQDSKDSTYSLSSTLTLSKADYEKHKVYACEVTHQGLSSPVTKSFNRGEC
notes: as for B3
B13: GpH7-A5/GpH7-B3 variant K326_04F/GpL16-k0 (antibody, human IgG1, kappa)
heavy 1: not shown
heavy 2: not shown
light: DIVMTQSPLSLPVTPGEPASISCQASESLVHSNRNTYLHWYLQKPGQSPQLLIYKVSNRFSGVPDRFSGSGSGTDFTLKISRVEAEDVGVYYCSQNTHVPPTFGQGTKVEIERTVAAPSVFIFPPSDEQLKSGTASVVCLLNNFYPREAKVQWKVDNALQSGNSQESVTEQDSKDSTYSLSSTLTLSKADYEKHKVYACEVTHQGLSSPVTKSFNRGEC
notes: Heterodimerized antibody, alteration in one H chain only; also called He Ab K326F
B14: GpH7-A5/GpH7-B3 variant K326_03V/GpL16-k0 (antibody, human IgG1, kappa)
heavy 1: not shown
heavy 2: not shown
light: DIVMTQSPLSLPVTPGEPASISCQASESLVHSNRNTYLHWYLQKPGQSPQLLIYKVSNRFSGVPDRFSGSGSGTDFTLKISRVEAEDVGVYYCSQNTHVPPTFGQGTKVEIERTVAAPSVFIFPPSDEQLKSGTASVVCLLNNFYPREAKVQWKVDNALQSGNSQESVTEQDSKDSTYSLSSTLTLSKADYEKHKVYACEVTHQGLSSPVTKSFNRGEC
notes: Heterodimerized antibody, alteration in one H chain only; also called He Ab K326V
B15: GpH7-A5/GpH7-B3 variant P238_10E/GpL16-k0 (antibody, human IgG1, kappa)
heavy 1: not shown
heavy 2: not shown
light: DIVMTQSPLSLPVTPGEPASISCQASESLVHSNRNTYLHWYLQKPGQSPQLLIYKVSNRFSGVPDRFSGSGSGTDFTLKISRVEAEDVGVYYCSQNTHVPPTFGQGTKVEIERTVAAPSVFIFPPSDEQLKSGTASVVCLLNNFYPREAKVQWKVDNALQSGNSQESVTEQDSKDSTYSLSSTLTLSKADYEKHKVYACEVTHQGLSSPVTKSFNRGEC
notes: Heterodimerized antibody, alteration in one H chain only; also called He Ab P238E
B16: GpH7-A5/GpH7-B3 variant P238_15Y/GpL16-k0 (antibody, human IgG1, kappa)
heavy 1: not shown
heavy 2: not shown
light: DIVMTQSPLSLPVTPGEPASISCQASESLVHSNRNTYLHWYLQKPGQSPQLLIYKVSNRFSGVPDRFSGSGSGTDFTLKISRVEAEDVGVYYCSQNTHVPPTFGQGTKVEIERTVAAPSVFIFPPSDEQLKSGTASVVCLLNNFYPREAKVQWKVDNALQSGNSQESVTEQDSKDSTYSLSSTLTLSKADYEKHKVYACEVTHQGLSSPVTKSFNRGEC
notes: Heterodimerized antibody, alteration in one H chain only; also called He Ab P238Y
B17: GpH7-A5/GpH7-B3 variant K326_08L/GpL16-k0 (antibody, human IgG1, kappa)
heavy 1: not shown
heavy 2: not shown
light: DIVMTQSPLSLPVTPGEPASISCQASESLVHSNRNTYLHWYLQKPGQSPQLLIYKVSNRFSGVPDRFSGSGSGTDFTLKISRVEAEDVGVYYCSQNTHVPPTFGQGTKVEIERTVAAPSVFIFPPSDEQLKSGTASVVCLLNNFYPREAKVQWKVDNALQSGNSQESVTEQDSKDSTYSLSSTLTLSKADYEKHKVYACEVTHQGLSSPVTKSFNRGEC
notes: Heterodimerized antibody, alteration in one H chain only; also called He Ab K326L
B18: GpH7-A5/GpH7-B3 variant H268_20W/GpL16-k0 (antibody, human IgG1, kappa)
heavy 1: not shown
heavy 2: not shown
light: DIVMTQSPLSLPVTPGEPASISCQASESLVHSNRNTYLHWYLQKPGQSPQLLIYKVSNRFSGVPDRFSGSGSGTDFTLKISRVEAEDVGVYYCSQNTHVPPTFGQGTKVEIERTVAAPSVFIFPPSDEQLKSGTASVVCLLNNFYPREAKVQWKVDNALQSGNSQESVTEQDSKDSTYSLSSTLTLSKADYEKHKVYACEVTHQGLSSPVTKSFNRGEC
notes: Heterodimerized antibody, alteration in one H chain only; also called He Ab H268W

Assays:
[1] = target: T1, FcγRIIb (human, UniProt P31994 43-217); test: SPR (Biacore), antibody captured, FcγR analyte; binding relative to GpH7-A5/GpH7-B3/GpL16-k0 = 100
T1 construct: extracellular domain; also called FcgRIIb; 2b
T1 sequence (looked up): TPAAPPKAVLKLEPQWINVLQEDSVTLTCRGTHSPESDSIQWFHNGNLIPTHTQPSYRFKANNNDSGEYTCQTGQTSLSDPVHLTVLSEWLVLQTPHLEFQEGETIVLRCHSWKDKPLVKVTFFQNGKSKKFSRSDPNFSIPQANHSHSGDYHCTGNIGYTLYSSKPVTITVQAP

[2] = target: T2, FcγRIIa H (human, UniProt P12318 34-217); test: as above
T2 construct: extracellular domain; also called FcgRIIa H; FcγRIIa type H
T2 sequence (looked up): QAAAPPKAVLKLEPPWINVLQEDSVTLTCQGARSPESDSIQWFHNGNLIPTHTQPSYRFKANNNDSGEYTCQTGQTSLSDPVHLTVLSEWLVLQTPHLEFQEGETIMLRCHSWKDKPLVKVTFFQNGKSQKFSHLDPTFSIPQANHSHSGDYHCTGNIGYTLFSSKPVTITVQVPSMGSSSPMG

[3] = target: T3, FcγRIa (human, UniProt P12314 16-292); test: SPR (Biacore), captured antibody, FcγRIa analyte; relative to HeCon Ab GpH7-A5/GpH7-B3/GpL16-k0 = 100
T3 construct: extracellular domain; soluble extracellular domain with C-terminal His tag, expressed in FreeStyle293 cells; also called FcgRI; FcgRIa
T3 sequence (P12314 16-292): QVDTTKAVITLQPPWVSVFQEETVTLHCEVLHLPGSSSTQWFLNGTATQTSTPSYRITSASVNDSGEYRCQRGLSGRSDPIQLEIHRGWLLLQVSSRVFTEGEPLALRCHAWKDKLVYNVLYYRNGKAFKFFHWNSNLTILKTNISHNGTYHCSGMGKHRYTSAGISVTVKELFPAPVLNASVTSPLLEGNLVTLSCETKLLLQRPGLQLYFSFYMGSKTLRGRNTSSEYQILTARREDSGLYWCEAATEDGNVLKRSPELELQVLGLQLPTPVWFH

Binder | He/Con_2b [1] | He/Con_2aH [2] | He/Con_1a [3]
B1 | 24.6 % of control |  | 
B2 | 204 % of control | 84.6 % of control | 
B3 |  |  | 106 % of control
B4 |  |  | 114 % of control
B5 | 126 % of control | 98.8 % of control | 
B6 |  |  | 107 % of control
B7 | 144 % of control | 99.2 % of control | 
B8 | 114 % of control | 99.2 % of control | 
B9 | 116 % of control | 81.8 % of control | 
B10 | 221 % of control | 87.5 % of control | 
B11 |  |  | 112 % of control
B12 |  |  | 107 % of control
B13 | 155 % of control | 97 % of control | 
B14 | 175 % of control | 97 % of control | 
B15 | 232 % of control | 77.1 % of control | 
B16 | 218 % of control | 59.8 % of control | 
B17 | 177 % of control | 92.7 % of control | 
B18 | 111 % of control | 95.8 % of control | 
